We go through 1 molecule from patent US20230340054A1 (published 2023).

Usually Kd stands for the constant that tells how readily two partners part at equilibrium. Low values mean higher affinity, high ones lower affinity.

Assay [1] addresses F906-(G2S1)4-IL2-(G2S1)6-HLE (IL2wt). Briefly: BLI. (In BLI a coated tip is dipped into the sample, and binding shifts an interference pattern.)
In assay [2] the target is F906-(G2S1)4-IL2(E62A)-(G2S1)6-HLE (IL-2mut). Briefly: BLI.

B1: CD122 (receptor)
chain: AVNGTSQFTCFYNSRANISCVWSQDGALQDTSCQVHAWPDRRRWNQTCELLPVSQASWACNLILGAPDSQKLTTVDIVTLRVLCREGVRWRVMAIQDFKPFENLRLMAPISLQVVHVETHRCNISWEISQASHYFERHLEFEARTLSPGHTWEEAPLLTLKQKQEWICLETLTPDTQYEFQVRVKPLQGEFTTWSPWSQPLAFRTKPAALGKD
modifications: biotinylated (site not stated)
Regarding B1, the Kd in assay [1] and in assay [2] was about 40 nM in each case.
